Experimental data as given in patent US20220125947A1 (published 2022).
Where a chain is given by its changes, count along the chain named.

B1: VG9B67 (antibody, human IgG1, kappa, V domains shown)
VH: EVQLVESGGGLVKPGGSLRLSCAASGFTFSSYTMNWVRQAPGKGLEWVSSISSSSSYIDYAESVKGRFTISRDNAKNSLYLQMNSLRAEDTAVYYCARDGDILATIRGSFDYWGQGTTVTVSS
VL: DIVMTQTPLSLPVTPGEPASISCRSSQSLLDSDAGNTYLDWYLQKPGQSPQLLIYTLSYRASGVPDRFSGSGSGTDFTLKISRVEAEDVAIYYCMQRIEFPITFGQGTKVEIKR
B2: VG9B402 (antibody, human IgG1, kappa)
heavy: not shown
light: DIQMTQSPSSVSASVGDRVTITCRASQGINSWLAWYQQKPGNAPKLLIYAASSLQSGVPSRFSGIGSGTDFIFTISSLQPEDFASYYCQQANSFPWTFGQGTKVDIKRTVAAPSVFIFPPSDEQLKSGTASVVCLLNNFYPREAKVQWKVDNALQSGNSQESVTEQDSKDSTYSLSSTLTLSKADYEKHKVYACEVTHQGLSSPVTKSFNRGEC
B3: VG9B127 (antibody, human IgG1, kappa, V domains shown)
VH: B1 VH with E1Q, A23T, S30G, S31A, Y60F, N84I, L103V, A104S, T117A, T118L
VL: B1 VL with D1E, T7S, A34D, A90G
B4: VG9B137 (antibody, human IgG1, kappa, V domains shown)
VH: EVQLVESGGGLVKPGGSLRLSCAAFGITFSSYSMDWVRQAPGRGLEWVSSIGSSSSYIFYADSVKGRFTISRDNAKNSLYLQMNSLRAEDTAVYYCATSYSWNYGGAFDIWGQGTMVTVSS
VL: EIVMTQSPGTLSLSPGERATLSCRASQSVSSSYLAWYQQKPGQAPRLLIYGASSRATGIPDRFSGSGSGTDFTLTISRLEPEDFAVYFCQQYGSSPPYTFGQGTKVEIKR
B5: VG9B33 (antibody, human IgG1, kappa, V domains shown)
VH: EVQLVESGGGLVKPGGSLRLSCAASGFTFSSYNMNWVRQAPGKGLEWVSSISTSSSYIYYADSVKGRFTISRDNAKNSLYLQMNGLRAEDTAVYYCARDTSVTKYPDTFDIWGQGTMVTVSS
VL: DIVMTQSPSSLSASVGDRVTITCRASQDINNYLAWFQQKPGKVPNLLIYGASTLQSGVPSRFTGSGSGTDFTLTISSLQPEDVATYYCQKYNSAPFTFGPGTKVDIKR
B6: VG9B162 (antibody, human IgG1, lambda, V domains shown)
VH: QVQLVESGAEVTKPGASVKVSCKASGYTFTGDYMHWVRQAPGQGLEWMGWINPNSGYTNYAQKFQGRVTMTRDTSISTAYMELSRLRSDDTAVYYCAREGDAFDVWGQGTMVTVSS
VL: QLVLTQSSSASGSPGQSVTISCTGTSSDVGGYNYVSWYQQHPGKAPKLMIYEVSKRPSGVPDRFSGSKSGNTASLTVSGLQAEDEADYYCNSYAGSNNFEVFGGGTKLTVLG
B7: VG9B152 (antibody, human IgG1, lambda, V domains shown)
VH: EVQLVESGGGLVRPGGSLRLSCEASGFTFSSYSMIWVRQAPGKGLEWVSSISSSSDYIYNADSVKGRFTISRDNAKNSLYLQMNSLRAEDTAVYYCARDWELLGFDCWGQGTTVTVSS
VL: SYELMQPPSVSVSPGQTASITCSGDKLGDKYACWYQQKPGQSPVLVIYQHNKRPSGIPERFSGSNSGKTATLTISGTQAMDEADYYCQAWDSTTVVFGGGTKLTVLG
B8: VG9B64 (antibody, human IgG1, kappa, V domains shown)
VH: QVQLVESGPTLVKPTQTLTLTCTFSGFSLSISGVSVGWIRQPPGKALEWLALIYWNDDKRYSPSLQSRVTITKDTSKNQVVLTVTNMDSVDTATYYCVHSGQWLEGDAFDIWGQGTMVTVSS
VL: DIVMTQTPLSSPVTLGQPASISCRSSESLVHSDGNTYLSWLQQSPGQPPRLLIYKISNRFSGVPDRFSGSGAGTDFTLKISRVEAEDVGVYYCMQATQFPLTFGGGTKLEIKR
B9: VG9B21 (antibody, human IgG1, kappa, V domains shown)
VH: EVQLLESGGGLVKPGGSLRLSCAASGFSFSNYDMNWVRQAPRKGLEWVSSISSSSHYIYYADSLKGRFTISRDNAKNSLFLQMNSLRAEDTAVYYCARDRGVTTDYYYYALDVWGQGTMVTVSS
VL: DIVMTQSPSSLSASVGDRVTITCRASQGIYNYLAWYQQKPGNVPKLLIYAASTLQSGVPSRFSGSGSGTDFSLTISSLQPEDFTTYYCQKYNRAPFTFGPGTKVDIKR
B10: VG9B128 (antibody, human IgG1, kappa, V domains shown)
VH: EVQLVESGGGVVQPGKSLRLSCTASGFTFGTYGMHWVRQAPGKGLDWVAVIWYNGSNKYYADSVKGRFTISRDNSKNTLYLQMNSLRTEDTAVYYCARGGFGESFDSWGQGTLVTVSS
VL: DIVMTQTPATLSLSPGERATLSCRASQSVIDYLAWFQQKPGQAPRLLIYDASNRATGIPARFSGSGSGTDFTLTISSLEPEDFAVYYCQQRSNWPLTFGGGTKVEIKR
B11: VG9B66 (antibody, human IgG1, kappa, V domains shown)
VH: B1 VH with S31T, S56F, I58M, E62D, Y80S, Q82L, L103V, T118M
VL: EIVLTQSPSSLSTSVGDRVTITCRASQDITNFLAWYQQKPGKLPKLLIYTASTLQSGVPSRFSGSASGPDFTLTISSLQPEDVATYYCQKYNSAPFTFGPGTKVEIKR
B12: VG9B32 (antibody, human IgG1, kappa, V domains shown)
VH: EVQLVQSGGDLLQPGGSLRLSCAASGFTFSRYAMNWVRQAPGKGLEWVSFISGTGYTVYYADSVKGRFTISRDNAKNSLYLQMNSLRDEDTAVYYCARDQEPGFDYWGQGTLVTVSS
VL: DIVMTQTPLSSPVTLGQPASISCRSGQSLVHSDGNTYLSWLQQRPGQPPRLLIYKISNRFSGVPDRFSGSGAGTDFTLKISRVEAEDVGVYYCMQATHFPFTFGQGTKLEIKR
B13: VG9B57 (antibody, human IgG1, kappa, V domains shown)
VH: EVQLVESGGGLVKPGGSLRLSCAASGFTFSSHDMNWVRQAPGKGLGWVSSISSSSSYIFYADSVKGRFTISRDNAKNSLYLQMSSLRAEDTAVYYCARDLGVGVRDYYYYGMDVWGQGTMVTVSS
VL: DIQMTQSPSAMSASVGDRVTITCRASQDITNYLAWFQQKPGKVPKRLIYAASSLQGGVPSRFSGSGSGTEFTLTISSLQPEDFSTYYCLQHDTYPYTFGQGTKLEIKR
B14: VG9B135 (antibody, human IgG1, kappa, V domains shown)
VH: QVTLKESGPTLVTPSQTLTLTCTFSGFSLTTYGVGVGWIRQPPGKALEWLALIYWNDDKRYYPSLNNRLTITKDTSKHLVVLTLTNMDPVDTATYYCAHDYDFWSGYFDYWGQGTLVTVSS
VL: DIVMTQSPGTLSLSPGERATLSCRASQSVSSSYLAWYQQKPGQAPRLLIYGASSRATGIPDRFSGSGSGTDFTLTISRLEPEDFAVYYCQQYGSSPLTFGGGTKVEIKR
B15: VG9B60 (antibody, human IgG1, kappa, V domains shown)
VH: QVQLVQSGAEVKKPGASVKVSCKASGYTFTGYYMHWVRQAPGQGLEWMGRINPNSGVTHYAQKFQGRVTMTRDTSISTAYMELSRLRSDDTAVYYCARGGSLVRGVISGLDYWGQGTTVTVSS
VL: DIVMTQSPGTLSLSPGERATLSCRASQSFSGSYLAWYQQKPGQAPSLLIYGASSRATGIPDRFSGSGSGTDFTLTISRLEPEDFALYYCQQYGSSPPYTFGQGTKVEIKR
B16: VG9B409 (antibody, human IgG1, kappa, V domains shown)
VH: EVQLVESGAEVKKPGASVKVSCKASGYTLTSYYMHWVRQAPGQGLEWMGIINPSGGSTSYAQKFQGRVTMTRDTSTSTVYMELSSLRSEDTAVYYCARGSYGWYFDLWGRGTLVTVSS
VL: EIVLTQSPGTLSLSPGERATLSCRASQSVTSSYLAWYQQKPGQTPRLLIYGASSRATGIPDRISGSGSGTDFTLTVSRLEPEDFAVYYCQQYGSSPPYTFGQGTKLEIKR
B17: VG9B411 (antibody, human IgG1, kappa, V domains shown)
VH: EVQLVESGGGLVKPGGSLRLSCSASGFTFSNYDMNWVRQAPGKGLEWVSSISSSSSYIYYADSVKGRFTISRDNAKNSLYLQMNSLRAEDTAVYHCARDVGVTTDYYYYGMDVWGQGTTVTVSS
VL: EIVMTQSPSSVSASVGDRVTITCRASQGINSWLAWYQQDPYKAPKLLIYAASTLQSGVPSRFGGRGSGTEFTLTISSLQPEDFAVYYCQQYNNWPRTFGQGTKVDIKR
notes: also called antibody #58
B18: VG9B129 (antibody, human IgG1, kappa, V domains shown)
VH: EVQLVQSGAEVKKPGSSVKVSCKASGGTFSSYVISWVRQAPGQGLEWMGGILPILSTANYAQKFQGRVTITADKSTSTAYMELSSLRSEDTAVYYCARAHDYYYGMDVWGQGTTVTVSS
VL: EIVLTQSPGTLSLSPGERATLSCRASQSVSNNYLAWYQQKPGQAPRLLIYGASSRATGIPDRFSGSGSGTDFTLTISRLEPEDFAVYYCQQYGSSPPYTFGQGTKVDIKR
notes: also called antibody #59
B19: VG9B396 (antibody, human IgG1, lambda, V domains shown)
VH: EVQLVESGPGLVQPSETLSLTCTVSGDSIRGYYWNWIRQPAGKGLEWIGRIFTTGNTNYNPSLKSRLTMSLDTSKNQFSLKLNSVTAADTAVYYCAREKWDSSSSALYFDFWGQGTLVTVSS
VL: QSVLTQAPSVSGAPGQRVTISCTGSSSNIGADYDVKWYQQLPGTAPKLLIYGNTDRPSGVPDRFSGSKSGTSASLAITGLQAEDEADYYCQSYDSRLTGYVVFGGGTKLTVLG
notes: also called antibody #60
B20: VG9B470 (antibody, human IgG1, kappa, V domains shown)
VH: QVTLKESGPTLVKPTQTLTLTCTFSGFSLTTSGVGVGWIRQPPGKALEWLALILWNDHTIYSPSLKSRLTITKDTSKNQVVLTMTNMDPVDTAAYFCARDKWELRDAFDIWGQGTMVTVSS
VL: EIVMTQSPSFLSASVGDRVTFTCRASQGISRYLAWYQQKPGRAPNLLIYVASTLQSGVPSRFSGSGSGTEFTLTISSLLPEDFATYYCQQLISYPYTFSQGTRLEIKR
notes: also called antibody #61
B21: VG9B111 (antibody, human IgG1, kappa, V domains shown)
VH: QVQLLESGGGLVKPGGSLRLSCAASGFTFSTYSVNWVRQAPGKGLEWVSSISSDSSYIFYADSMKGRFTISRDNAKNSLYLHMNSLRAEDTAVYYCARDSVTGPFDYWGQGTLVTVSS
VL: DIVMTQSPSSLSASVGDRVTITCQASQDISHYLNWYQQKPGKAPKLLIYDSYILETGVTSRFSGSGSGTDFTFTINSLQPEDIAIYYCQQYDNLPYTFGQGTKVEIKR
notes: also called antibody #62

Assays:
[1] = biological target: T1, γδ T cell receptor on human γδ T cells (human); assay: flow cytometry, dose-response binding at 37° C. on human γδ T cells
T1 construct: Mixed population of primary cells; also called AG000003021 (γδ T cells)
Protocol: (§1) Binding of antibodies to human γδ T cells or SKW cell lines expressing Vγ9/Vδ2, Vγ9/Vδ2 or Vγ5/Vδ2 was carried out by flow cytometry. Briefly, the cells were centrifuged at 300×g for 5 minutes and the pellet was resuspended in 34 ml fresh media (in RPMI+10% FBS). 50 μL of the cells were then plated (44K cells/well) into assay plates. Samples were incubated for one hour at 37° C. in tissue culture (TC) incubator followed by wash steps by adding 100 μl FACS staining buffer. Secondary detention antibodies (A647 conjugated anti-human IgG Fc specific antibody (2 μg/mL) along with AF488 anti mouse CD3, clone OKT3 at 1 ug/mL) were added at 50 μL/well to appropriate wells according to the plate map. After incubating for 60 minutes at 37° C. in the TC incubator, cells were again washed as described above. This is followed by resuspension in 20 μL/well running buffer containing 1:1000 dilution of Sytox blue dead cell stain and the plates were run on iQue Screener.
(§2) Gating and data analysis: Human anti-human Vγ9 antibody (VG9B2 mAb at 10 nM) was used to mark the gating of positive population. All cells were first gated for singlets on SCS-A vs. SCS-H dot plot, live/dead followed by CD3 positive population, and this subset of CD3 positive population was gated for Vγ9 positive binding using positive control mAb. Cells were also assessed for cell binding of control mAbs by RL1 (A647) Geomeans from the live cell population. Advanced metrics were used and normalization metrics were chosen to calculate fold over background wells containing secondary antibody alone (designated as ‘background’ within ForeCyt settings).

[2] = biological target: T2, γδ T cell receptor on human γδ T cells (human); assay: flow cytometry, dose-response (DRC) binding at 37°C on human γδ T cells
T2 construct: also called AG000003021 (γδ T cells)
Protocol: as §1, §2

| Binder | Max. Activity [1] [fold over background] | Max. Activity [2] [fold over background] |
| --- | --- | --- |
| B1 | 2270 |  |
| B2 | 2250 |  |
| B3 | 2230 |  |
| B4 | 2200 |  |
| B5 | 2090 |  |
| B6 | 1860 |  |
| B7 | 1850 |  |
| B8 | 1690 |  |
| B9 | 1670 |  |
| B10 | 1480 |  |
| B11 | 1220 |  |
| B12 | 1210 |  |
| B13 | 1210 |  |
| B14 | 577 |  |
| B15 | 567 |  |
| B16 | 411 |  |
| B17 |  | 396 |
| B18 |  | 271 |
| B19 |  | 4540 |
| B20 |  | 4270 |
| B21 |  | 3430 |
